Drawing on paper PMC6582324 (Nucleic Acids Research, 2019), this text covers binding result and Kd for 20 molecules.

Where a chain is given by its changes, count along the chain named. Names may count otherwise.

To fix the notation:
T1: SigI1C K209E/R217E (Clostridium thermocellum ATCC 27405, UniProt A3DBH0 141-249, K209E;R217E)
T1 sequence: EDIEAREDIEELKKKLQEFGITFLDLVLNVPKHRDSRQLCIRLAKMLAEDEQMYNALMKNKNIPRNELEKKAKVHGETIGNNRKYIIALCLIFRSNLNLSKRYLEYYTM

T2: SigI1C (Clostridium thermocellum ATCC 27405, UniProt A3DBH0 141-249)
T2 sequence: T1 sequence with E69K, E77R

T3: SigI1C, C-terminal domain of σI factor SigI1 (C. thermocellum ATCC 27405, UniProt A3DBH0 141-249)
T3 sequence: T1 sequence with E69K, E77R

B1: PSigI1 -35 region (dsDNA)
DNA 1: ATCGATAATATACACAAAAA
DNA 2: TTTTTGTGTATATTATCGAT
B2: RsgI1N, N-terminal cytoplasmic inhibitory domain of anti-σI factor RsgI1, wild type (domain or fragment, C. thermocellum ATCC 27405)
chain: MNRLGIIYEIQGMKAVVLTSEGEFLIIRRRKDMKVGQQVSFENEDIYNVRGK
B3: RsgI1N Y8L-E9K (domain or fragment, C. thermocellum ATCC 27405)
chain: B2 chain with Y8L, E9K
B4: RsgI1N E9K-E21K (domain or fragment, C. thermocellum ATCC 27405)
chain: B2 chain with E9K, E21K
B5: RsgI1N E23K (domain or fragment, C. thermocellum ATCC 27405)
chain: B2 chain with E23K
B6: RsgI1N L18I (domain or fragment, C. thermocellum ATCC 27405)
chain: B2 chain with L18I
B7: RsgI1N Y8L (domain or fragment, C. thermocellum ATCC 27405)
chain: B2 chain with Y8L
B8: RsgI1N L18F (domain or fragment, C. thermocellum ATCC 27405)
chain: B2 chain with L18F
B9: RsgI1N E9K-E23K (domain or fragment, C. thermocellum ATCC 27405)
chain: B2 chain with E9K, E23K
B10: RsgI1N E21K (domain or fragment, C. thermocellum ATCC 27405)
chain: B2 chain with E21K
B11: RsgI1N F24I (domain or fragment, C. thermocellum ATCC 27405)
chain: B2 chain with F24I
B12: RsgI1N Y8L-E9K-V35R (domain or fragment, C. thermocellum ATCC 27405)
chain: B2 chain with Y8L, E9K, V35R
B13: RsgI1N E9G (domain or fragment, C. thermocellum ATCC 27405)
chain: B2 chain with E9G
B14: RsgI1N V16K (domain or fragment, C. thermocellum ATCC 27405)
chain: B2 chain with V16K
B15: RsgI1N V35K (domain or fragment, C. thermocellum ATCC 27405)
chain: B2 chain with V35K
B16: RsgI1N E9K (domain or fragment, C. thermocellum ATCC 27405)
chain: B2 chain with E9K
B17: RsgI1N V16I (domain or fragment, C. thermocellum ATCC 27405)
chain: B2 chain with V16I
B18: RsgI1N Y8L-V35R (domain or fragment, C. thermocellum ATCC 27405)
chain: B2 chain with Y8L, V35R
B19: RsgI1N Y8I (domain or fragment, C. thermocellum ATCC 27405)
chain: B2 chain with Y8I
B20: RsgI1N V35I (domain or fragment, C. thermocellum ATCC 27405)
chain: B2 chain with V35I

In one data set the target is T1, SigI1C K209E/R217E. Kind of data set: EMSA. (In general: In EMSA bound probe runs differently from free probe, usually more slowly.)
For B1, the binding result is “no binding”.

In another data set the target is T2, SigI1C. Description: EMSA.
With B1, the binding result is “binds”.

In the next data set the target is T3, SigI1C, C-terminal domain of σI factor …. Description: SPR.
The term Kd denotes the free concentration of one partner at which half of the binding sites on the other are occupied at equilibrium, for simple one-to-one binding. Read a high Kd as weaker binding. B2 showed an equilibrium dissociation constant (Kd) of 0.011 nM. This lies in the picomolar range.
For the molecule B3, the Kd was found to be 0.16 nM. Compared with the last molecule, the Kd is about 15-fold higher.
B4 registered a Kd of 0.02 nM. This Kd lies about 8-fold lower than the previous one.
On the same count and under the same terms, the value for B5 was 0.36 nM; that for B6 was 0.67 nM; that for B7 was 0.084 nM.
The same measure, in the same setting: as for B8, the figure is 0.0031 nM.
The same measure, in the same setting: the value for B9 was 6.4 nM; that for B10 was 0.016 nM; that for B11 was 0.19 nM.
As for B12, the Kd came out at 9.3 nM.
Same read-out and setting: as for B13, the figure is 0.071 nM; as for B14, 2.4 nM.
Molecule B15 showed a Kd of 0.0065 nM.
Molecule B16 returned a Kd of 0.097 nM.
On the same count and under the same terms, as for B17, the figure is 0.36 nM; as for B18, 0.04 nM; as for B19, 0.45 nM.
With B20, the Kd stood at 0.023 nM. This Kd lies about 20-fold lower than the previous one.
